# T1: B42-WRS (tryptophanyl-tRNA synthetase) (UniProt P23381 1-471)
# T1 construct: Yeast two-hybrid prey; also called tryptophanyl-WRS; pB42-WRS; not shown: B42 protein from pB42 vector (Invitrogen)
# T1 sequence (looked up): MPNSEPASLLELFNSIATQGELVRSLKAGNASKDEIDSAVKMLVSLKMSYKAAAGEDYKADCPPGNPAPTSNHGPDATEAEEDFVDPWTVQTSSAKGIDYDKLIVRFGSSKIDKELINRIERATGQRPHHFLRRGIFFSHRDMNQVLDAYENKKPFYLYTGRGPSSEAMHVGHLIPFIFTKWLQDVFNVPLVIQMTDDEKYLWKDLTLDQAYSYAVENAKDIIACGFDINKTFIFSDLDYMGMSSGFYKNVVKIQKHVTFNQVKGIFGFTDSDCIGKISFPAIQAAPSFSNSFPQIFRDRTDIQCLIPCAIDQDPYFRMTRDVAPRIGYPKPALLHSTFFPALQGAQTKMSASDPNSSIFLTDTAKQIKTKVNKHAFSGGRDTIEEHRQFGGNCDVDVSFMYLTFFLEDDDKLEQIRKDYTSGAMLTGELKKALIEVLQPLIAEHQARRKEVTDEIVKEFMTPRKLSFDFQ
# T2: B42-(p38/JTV-1) (human, UniProt Q13155 1-312)
# T2 construct: Yeast two-hybrid prey; also called pB42-(p38/JTV-1); not shown: B42 protein from pB42 vector (Invitrogen)
# T2 sequence: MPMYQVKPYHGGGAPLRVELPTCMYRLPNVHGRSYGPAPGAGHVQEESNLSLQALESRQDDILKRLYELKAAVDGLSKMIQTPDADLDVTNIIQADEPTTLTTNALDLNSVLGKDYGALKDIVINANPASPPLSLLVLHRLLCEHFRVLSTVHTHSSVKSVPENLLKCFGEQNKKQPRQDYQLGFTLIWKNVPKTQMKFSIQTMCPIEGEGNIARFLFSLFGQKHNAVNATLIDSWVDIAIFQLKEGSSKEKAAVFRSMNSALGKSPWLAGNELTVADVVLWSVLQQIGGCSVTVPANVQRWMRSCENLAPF
# T3: B42-QRS (glutaminyl-tRNA synthetase) (UniProt P47897 1-775)
# T3 construct: Yeast two-hybrid prey; also called pB42-QRS; not shown: B42 protein from pB42 vector (Invitrogen)
# T3 sequence (looked up): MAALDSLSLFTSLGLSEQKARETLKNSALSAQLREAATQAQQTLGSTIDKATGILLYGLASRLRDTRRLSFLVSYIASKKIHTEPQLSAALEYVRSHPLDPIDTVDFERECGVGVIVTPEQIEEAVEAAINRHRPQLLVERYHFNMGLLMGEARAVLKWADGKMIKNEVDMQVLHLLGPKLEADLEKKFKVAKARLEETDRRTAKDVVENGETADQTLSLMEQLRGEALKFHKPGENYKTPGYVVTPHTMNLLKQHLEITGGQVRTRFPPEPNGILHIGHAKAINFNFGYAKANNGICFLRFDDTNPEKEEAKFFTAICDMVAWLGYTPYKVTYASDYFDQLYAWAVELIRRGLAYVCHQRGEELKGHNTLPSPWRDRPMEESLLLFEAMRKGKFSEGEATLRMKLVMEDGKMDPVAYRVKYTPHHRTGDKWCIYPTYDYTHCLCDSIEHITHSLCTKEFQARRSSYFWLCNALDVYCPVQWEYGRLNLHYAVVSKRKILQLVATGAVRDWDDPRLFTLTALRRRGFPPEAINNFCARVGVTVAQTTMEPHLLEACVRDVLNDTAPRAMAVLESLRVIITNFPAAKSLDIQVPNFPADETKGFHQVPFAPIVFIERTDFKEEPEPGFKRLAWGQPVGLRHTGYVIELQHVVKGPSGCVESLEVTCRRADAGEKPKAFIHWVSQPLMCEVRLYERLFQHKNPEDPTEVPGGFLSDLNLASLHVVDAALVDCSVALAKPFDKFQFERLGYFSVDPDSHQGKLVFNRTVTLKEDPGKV
# T4: B42-YRS (tyrosyl-tRNA synthetase) (UniProt P54577 1-528)
# T4 construct: Yeast two-hybrid prey; also called tyrosyl-YRS; pB42-YRS; not shown: B42 protein from pB42 vector (Invitrogen)
# T4 sequence (looked up): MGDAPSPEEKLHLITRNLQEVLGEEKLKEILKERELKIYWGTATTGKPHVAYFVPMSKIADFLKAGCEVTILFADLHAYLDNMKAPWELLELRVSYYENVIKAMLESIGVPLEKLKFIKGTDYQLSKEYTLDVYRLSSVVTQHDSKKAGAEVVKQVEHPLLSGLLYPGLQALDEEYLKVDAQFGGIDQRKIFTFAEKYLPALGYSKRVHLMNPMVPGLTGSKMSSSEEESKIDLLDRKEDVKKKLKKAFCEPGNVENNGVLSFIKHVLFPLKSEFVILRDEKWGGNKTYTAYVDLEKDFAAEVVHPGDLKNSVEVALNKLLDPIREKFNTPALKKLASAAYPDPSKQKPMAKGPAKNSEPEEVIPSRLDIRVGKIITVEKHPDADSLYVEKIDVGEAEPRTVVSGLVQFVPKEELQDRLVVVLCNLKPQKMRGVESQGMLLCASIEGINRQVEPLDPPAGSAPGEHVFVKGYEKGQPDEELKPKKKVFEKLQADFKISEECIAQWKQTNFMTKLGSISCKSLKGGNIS
# T5: PDK-1 (phosphoinositide-dependent kinase) (UniProt O15530 1-556, limits assumed)
# T5 construct: Endogenous protein of the cell lysate
# T5 sequence (looked up): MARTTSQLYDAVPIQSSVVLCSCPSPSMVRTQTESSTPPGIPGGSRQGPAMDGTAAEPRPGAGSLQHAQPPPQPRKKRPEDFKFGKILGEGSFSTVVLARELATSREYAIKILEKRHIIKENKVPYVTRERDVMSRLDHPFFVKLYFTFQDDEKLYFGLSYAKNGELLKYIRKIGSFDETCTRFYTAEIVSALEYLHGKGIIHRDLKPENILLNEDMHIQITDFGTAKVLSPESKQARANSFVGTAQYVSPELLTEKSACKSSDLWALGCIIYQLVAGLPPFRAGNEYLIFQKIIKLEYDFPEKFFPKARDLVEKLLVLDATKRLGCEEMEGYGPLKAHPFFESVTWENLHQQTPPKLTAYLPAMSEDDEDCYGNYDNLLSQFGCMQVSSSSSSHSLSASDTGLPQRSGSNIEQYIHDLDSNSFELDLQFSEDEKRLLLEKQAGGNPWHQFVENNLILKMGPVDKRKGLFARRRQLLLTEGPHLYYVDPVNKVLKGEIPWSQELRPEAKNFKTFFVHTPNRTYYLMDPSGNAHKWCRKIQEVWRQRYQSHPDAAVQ
# T6: myc-(p38/JTV-1), amino acids 1-312 (full length)
# T6 chain: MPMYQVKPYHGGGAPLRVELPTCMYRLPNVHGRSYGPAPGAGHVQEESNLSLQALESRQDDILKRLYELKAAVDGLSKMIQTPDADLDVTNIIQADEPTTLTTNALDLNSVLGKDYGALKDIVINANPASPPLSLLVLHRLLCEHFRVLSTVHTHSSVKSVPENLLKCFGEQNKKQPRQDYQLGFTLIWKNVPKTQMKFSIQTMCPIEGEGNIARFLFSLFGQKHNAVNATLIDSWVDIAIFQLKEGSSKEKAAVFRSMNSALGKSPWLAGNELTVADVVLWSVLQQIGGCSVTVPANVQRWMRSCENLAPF
# T7: HA-FBP (human, UniProt Q96AE4 1-644)
# T7 construct: also called HA-tagged FBP; FBP expression plasmid product; not shown: HA tag from HA-tagged pcDNA3 (Invitrogen)
# T7 sequence (looked up): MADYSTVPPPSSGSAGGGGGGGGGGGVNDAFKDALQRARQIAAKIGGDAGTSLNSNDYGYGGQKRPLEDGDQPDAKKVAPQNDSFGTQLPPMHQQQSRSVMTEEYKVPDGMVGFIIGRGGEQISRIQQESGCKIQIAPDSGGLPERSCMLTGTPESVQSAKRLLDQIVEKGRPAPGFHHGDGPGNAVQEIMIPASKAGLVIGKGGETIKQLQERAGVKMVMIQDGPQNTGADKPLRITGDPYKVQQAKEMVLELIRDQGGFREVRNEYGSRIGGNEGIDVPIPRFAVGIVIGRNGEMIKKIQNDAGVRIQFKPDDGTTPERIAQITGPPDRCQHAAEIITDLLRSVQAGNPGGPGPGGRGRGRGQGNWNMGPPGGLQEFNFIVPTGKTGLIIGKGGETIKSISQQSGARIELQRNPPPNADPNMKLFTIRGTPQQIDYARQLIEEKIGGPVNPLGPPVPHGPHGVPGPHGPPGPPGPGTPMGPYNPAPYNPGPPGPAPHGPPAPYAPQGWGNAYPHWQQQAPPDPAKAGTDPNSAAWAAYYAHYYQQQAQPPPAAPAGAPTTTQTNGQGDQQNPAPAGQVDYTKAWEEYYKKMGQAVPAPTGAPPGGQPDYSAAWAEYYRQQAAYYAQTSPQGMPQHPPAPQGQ
# B1: LexA-(p38/JTV-1) (other)
# chain: MPMYQVKPYHGGGAPLRVELPTCMYRLPNVHGRSYGPAPGAGHVQEESNLSLQALESRQDDILKRLYELKAAVDGLSKMIQTPDADLDVTNIIQADEPTTLTTNALDLNSVLGKDYGALKDIVINANPASPPLSLLVLHRLLCEHFRVLSTVHTHSSVKSVPENLLKCFGEQNKKQPRQDYQLGFTLIWKNVPKTQMKFSIQTMCPIEGEGNIARFLFSLFGQKHNAVNATLIDSWVDIAIFQLKEGSSKEKAAVFRSMNSALGKSPWLAGNELTVADVVLWSVLQQIGGCSVTVPANVQRWMRSCENLAPF
# notes: Yeast two-hybrid bait expressed in S. cerevisiae EGY48; also called fusion protein of p38/JTV-1 and LexA; pLexA-(p38/JTV-1); not shown: LexA protein encoded by pLex202 vector (Invitrogen)
# B2: myc-(p38/JTV-1), amino acids 1-312 (full length) (other)
# chain: MPMYQVKPYHGGGAPLRVELPTCMYRLPNVHGRSYGPAPGAGHVQEESNLSLQALESRQDDILKRLYELKAAVDGLSKMIQTPDADLDVTNIIQADEPTTLTTNALDLNSVLGKDYGALKDIVINANPASPPLSLLVLHRLLCEHFRVLSTVHTHSSVKSVPENLLKCFGEQNKKQPRQDYQLGFTLIWKNVPKTQMKFSIQTMCPIEGEGNIARFLFSLFGQKHNAVNATLIDSWVDIAIFQLKEGSSKEKAAVFRSMNSALGKSPWLAGNELTVADVVLWSVLQQIGGCSVTVPANVQRWMRSCENLAPF
# notes: also called myc-tagged p38/JTV-1; p38/JTV-1 expression plasmid product; not shown: myc tag from myc-tagged pcDNA3 (Invitrogen)
# B3: PDK-1 (phosphoinositide-dependent kinase) (protein)
# chain: MARTTSQLYDAVPIQSSVVLCSCPSPSMVRTQTESSTPPGIPGGSRQGPAMDGTAAEPRPGAGSLQHAQPPPQPRKKRPEDFKFGKILGEGSFSTVVLARELATSREYAIKILEKRHIIKENKVPYVTRERDVMSRLDHPFFVKLYFTFQDDEKLYFGLSYAKNGELLKYIRKIGSFDETCTRFYTAEIVSALEYLHGKGIIHRDLKPENILLNEDMHIQITDFGTAKVLSPESKQARANSFVGTAQYVSPELLTEKSACKSSDLWALGCIIYQLVAGLPPFRAGNEYLIFQKIIKLEYDFPEKFFPKARDLVEKLLVLDATKRLGCEEMEGYGPLKAHPFFESVTWENLHQQTPPKLTAYLPAMSEDDEDCYGNYDNLLSQFGCMQVSSSSSSHSLSASDTGLPQRSGSNIEQYIHDLDSNSFELDLQFSEDEKRLLLEKQAGGNPWHQFVENNLILKMGPVDKRKGLFARRRQLLLTEGPHLYYVDPVNKVLKGEIPWSQELRPEAKNFKTFFVHTPNRTYYLMDPSGNAHKWCRKIQEVWRQRYQSHPDAAVQ
# B4: myc-tagged p38/JTV-1 deletion fragment, amino acids 162-312 (other)
# chain: PENLLKCFGEQNKKQPRQDYQLGFTLIWKNVPKTQMKFSIQTMCPIEGEGNIARFLFSLFGQKHNAVNATLIDSWVDIAIFQLKEGSSKEKAAVFRSMNSALGKSPWLAGNELTVADVVLWSVLQQIGGCSVTVPANVQRWMRSCENLAPF
# notes: not shown: myc tag from myc-tagged pcDNA3 (Invitrogen)
# Columns and labels:
# [1] = target: T1, B42-WRS (tryptophanyl-tRNA synthetase); assay: yeast two-hybrid (LexA system), blue colony on X-gal
# From the text: (§1) Using the recombinant plasmids constructed in the above, Saccaromyces cerevisiae EGY48 (Clontech laboratories Inc. Estojak et al. (1995)) having a lacZ plasmid (p8op-LacZ) as a probe gene was transformed according to the known methods (Golemis, E. A., et al., In Current Protocols in Molecular Biology, 1994).
# B42-(p38/JTV-1) = target: T2, B42-(p38/JTV-1); assay: as above
# From the text: as §1
# [2] = target: T3, B42-QRS (glutaminyl-tRNA synthetase); assay: as above
# From the text: as §1
# [3] = target: T4, B42-YRS (tyrosyl-tRNA synthetase); assay: as above
# From the text: as §1
# [4] = target: T5, PDK-1 (phosphoinositide-dependent …); assay: anti PDK-1 immunoprecipitation from HCT116 cells treated with FasL or TNF, western blot with p38/JTV-1 antibody
# [5] = target: T6, myc-(p38/JTV-1), amino acids 1-312 …
# HA-FBP = target: T7, HA-FBP; assay: co-immunoprecipitation with anti-myc from 293 cells, western blot
# Procedure: The transfected cells were lysed with the RIPA buffer for 16 hours after the transfection. […] After a protein A-agarose bead had been added to the above reactant, the mixture was incubated further for 1 hour at 4° C. The bead was washed with lysis buffer four times. The precipitated proteins were analyzed by SDS-PAGE and then transferred onto nitrocellulose membranes.
binder,measurement,setting,value
B1,binding result,[1],no binding
same,binding result,B42-(p38/JTV-1),binds
same,binding result,[2],no binding
same,binding result,[3],no binding
B2,binding result,[4],binds
B3,expression level of the phosphorylated AKT (p-308 and p-473),[5],"when the expression level of p38/JTV-1 was increased, the expression level of the phosphorylated AKT (p-308 and p-473) was decreased"
B4,binding result,HA-FBP,no binding

# Reference: patent US20040175375A1 (SEOUL NATIONAL UNIVERSITY INDUSTRY FOUNDATION, published 2004)
